The values that follow come from patent publication US20180258181A1 (Bayer, published 2018).

B1: MF-T IgG (antibody, V domains shown)
VH: QVELVQSGAEVKKPGESLKISCKGSGYSFTSYWIGWVRQAPGKGLEWMGIIDPGDSRTRYSPSFQGQVTISADKSISTAYLQWSSLKASDTAMYYCARGQLYGGTYMDGWGQGTLVTVSS
VL: DIALTQPASVSGSPGQSITISCTGTSSDIGGYNSVSWYQQHPGKAPKLMIYGVNNRPSGVSNRFSGSKSGNTASLTISGLQAEDEADYYCSSYDIESATPVFGGGTKLTVLG
B2: MF-J IgG (antibody, V domains shown)
VH: QVELVQSGAEVKKPGESLKISCKGSGYSFTNYWIGWVRQMPGKGLEWMGVIMPSDSYTRYSPSFQGQVTISADKSISTAYLQWSSLKASDTAMYYCARYGHGMYGGALDVWGQGTLVTVSS
VL: DIVLTQSPATLSLSPGERATLSCRASQSVRSSRLAWYQQKPGQAPRLLIYGASKRATGVPARFSGSGSGTDFTLTISSLEPEDFATYYCQQYYDFPPTFGQGTKVEIKR
B3: MF-L IgG (antibody, V domains shown)
VH: QVQLVESGGGLVQPGGSLRLSCAASGFTFSDYAMSWVRQAPGKGLEWVSAIMYDSSSTFYADSVKGRFTISRDNSKNTLYLQMNSLRAEDTAVYYCARINYIYKGVHFDYWGQGTLVTVSS
VL: DIVLTQSPATLSLSPGERATLSCRASQIVSGYLAWYQQKPGQAPRLLIYGASSRATGVPARFSGSGSGTDFTLTISSLEPEDFATYYCQQYYNFSFTFGQGTKVEIKR
B4: MF-226 IgG (antibody, V domains shown)
VH: QVELVQSGAEVKKPGASVKVSCKASGYTFTGNYINWVRQAPGQGLEWMGIINPHGGDTKYAQKFQGRVTMTRDTSISTAYMELSSLRSEDTAVYYCARWHHGTWIFDYWGQGTLVTVSS
VL: DIVLTQPPSVSGAPGQRVTISCSGSSSNIGSNYVSWYQQLPGTAPKLLIYNDNQRPSGVPDRFSGSKSGTSASLAITGLQSEDEADYYCSTYDRRTFSVFGGGTKLTVLG
B5: MF-428 (antibody, V domains shown)
VH: QVQLVESGGGLVQPGGSLRLSCAASGFTFSTYAMSWVRQAPGKGLEWVSFISGYGSSTYYADSVKGRFTISRDNSKNTLYLQMNSLRAEDTAVYYCARKMYWWSDGFDYWGQGTLVTVSS
VL: DIELTQPPSVSVAPGQTARISCSGDNLRSKYAHWYQQKPGQAPVLVIYSKDNRPSGIPERFSGSNSGNTATLTISGTQAEDEADYYCSSWAHDHKVFGGGTKLTVLG

For orientation: EC50 means the concentration at which the effect is half-maximal. Read a high EC50 as a need for much substance.

T1 sequence (Q13421 other isoform, or with tags, fused parts or gaps limits assumed): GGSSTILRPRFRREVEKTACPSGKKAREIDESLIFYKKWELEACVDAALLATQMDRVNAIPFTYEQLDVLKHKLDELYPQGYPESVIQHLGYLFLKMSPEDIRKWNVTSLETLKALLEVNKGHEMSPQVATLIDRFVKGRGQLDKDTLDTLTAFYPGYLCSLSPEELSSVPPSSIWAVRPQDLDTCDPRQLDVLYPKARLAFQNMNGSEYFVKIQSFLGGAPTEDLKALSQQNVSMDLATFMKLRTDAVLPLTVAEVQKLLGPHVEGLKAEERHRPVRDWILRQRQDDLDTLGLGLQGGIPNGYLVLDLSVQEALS

One test has as its target T1, mesothelin on CHO-A9 cells (CHO-K1 stably transfected with the GPI-anchored C-terminal part of mesothelin) (Homo sapiens (Human), UniProt Q13421 287-598, GPI anchor).
T1 construct: In the immunoblots the protein stood in a denatured cell extract; also called mesothelin-expressing CHO-A9 cells
The test can be described thus: FACS with Scatchard analysis, IgG1 on CHO-A9 cells.
As for B1, the EC50 was determined as 270 pM.
Still for that read-out and setting: next, B2: 110 pM; B3: 70 pM.
For B4, the EC50 was 150 pM.

In another test the target is T1, mesothelin on CHO-A9 cells (CHO-K1 …). The test can be described thus: live cell ELISA, IgG1 on CHO-A9 cells. For orientation: An ELISA detects its analyte on a solid surface through an enzyme-linked reagent.
In the case of B1, the midpoint of the response, the EC50, lay at 1500 pM.
In turn, B2 yielded an EC50 of 3900 pM.
Molecule B3 returned an EC50 of 800 pM.
Same read-out and setting: next, B4: 400 pM.

For the next test, the target named is T2, human mesothelin (recombinant, soluble, purified; 40 kDa C-terminal polypeptide of the mesothelin precursor) (human, UniProt Q13421 296-598, limits assumed).
T2 construct: also called soluble mesothelin
T2 sequence (Q13421 other isoform, or with tags, fused parts or gaps limits assumed): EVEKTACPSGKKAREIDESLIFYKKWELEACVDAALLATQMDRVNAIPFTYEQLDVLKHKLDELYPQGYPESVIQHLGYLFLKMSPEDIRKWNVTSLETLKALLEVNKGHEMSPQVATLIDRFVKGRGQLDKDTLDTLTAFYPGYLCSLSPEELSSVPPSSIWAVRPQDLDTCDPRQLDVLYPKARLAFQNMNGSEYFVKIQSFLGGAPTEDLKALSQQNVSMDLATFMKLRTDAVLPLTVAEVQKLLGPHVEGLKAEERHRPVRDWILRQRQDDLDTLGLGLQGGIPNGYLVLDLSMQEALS
Nature of the test: Biacore pairwise binding, mesothelin (50 nM) captured by immobilized MF-T, second antibody 200 nM. On the procedure: Competitive binding of pairs of antibodies was determined by immobilizing one antibody to the sensor chip, binding soluble mesothelin to this antibody and immediately binding a second antibody to mesothelin. Pairs of antibodies which recognize the same or overlapping epitopes on mesothelin cannot bind simultaneously. All combinations of antibody pairs were tested. Representative data for MF-T are shown (A). Panel B depicts the relative positions of epitopes of seven anti-mesothelin antibodies, in which competition is depicted by overlapping circles.
Epitope grouping experiments were performed using Biacore by monitoring simultaneous binding of pairs of anti-mesothelin antibodies to immobilized mesothelin. Briefly, the first antibody was covalently immobilized to the sensor chip through primary amine coupling using n-hydroxysuccinamide ([…]) and N-ethyl-N′-dimethylaminopropyl carbodiimide (EDC). Unoccupied binding sites on the surface were then blocked with ethanolamide. Soluble mesothelin was captured on the surface via the immobilized antibody, therefore, the epitope of the capture antibody is blocked for all bound mesothelin molecules. A second antibody was immediately passed over the surface to bind to the immobilized mesothelin. Two antibodies recognizing the same or overlapping epitopes cannot bind to the mesothelin, whereas antibodies with distinct epitopes are able to bind. […]
For orientation: In SPR one partner is held on a chip, and binding of the other changes the refractive index at the surface.
B5: the binding result was “binds”.
